Laboratory results taken from patent US20240141072A1 (published 2024).

Experiments:
[1] = target: T1, DLL3 targeting trispecific protein containing 52D04, anti-CD3:anti-ALB:anti-DLL3 (CAT) configuration; assay: flow cytometry on NCI-H82, SHP77, DMS53, NCI-H2171 cells
T1 construct: also called DLL3-targeting TriTAC

[2] = target: T2, DLL3 targeting trispecific protein containing 52D04, anti-DLL3:anti-ALB:anti-CD3 (TAC) configuration; assay: as above
T2 construct: also called DLL3-targeting TriTAC
T2 sequence (chain, as listed by the source): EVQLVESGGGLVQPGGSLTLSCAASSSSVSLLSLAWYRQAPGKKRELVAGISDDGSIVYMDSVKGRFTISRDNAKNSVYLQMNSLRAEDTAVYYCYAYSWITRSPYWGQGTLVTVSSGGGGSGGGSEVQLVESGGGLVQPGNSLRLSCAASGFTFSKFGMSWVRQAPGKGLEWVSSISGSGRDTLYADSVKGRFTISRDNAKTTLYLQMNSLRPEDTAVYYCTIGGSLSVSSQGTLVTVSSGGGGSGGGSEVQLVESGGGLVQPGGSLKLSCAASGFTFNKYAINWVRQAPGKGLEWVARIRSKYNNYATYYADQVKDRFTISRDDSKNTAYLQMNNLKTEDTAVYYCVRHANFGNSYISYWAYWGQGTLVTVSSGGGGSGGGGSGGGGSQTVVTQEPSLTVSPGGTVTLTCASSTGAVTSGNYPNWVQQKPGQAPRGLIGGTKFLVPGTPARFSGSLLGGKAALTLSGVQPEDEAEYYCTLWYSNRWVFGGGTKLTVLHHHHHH

T1 sequence (chain, as listed by the source): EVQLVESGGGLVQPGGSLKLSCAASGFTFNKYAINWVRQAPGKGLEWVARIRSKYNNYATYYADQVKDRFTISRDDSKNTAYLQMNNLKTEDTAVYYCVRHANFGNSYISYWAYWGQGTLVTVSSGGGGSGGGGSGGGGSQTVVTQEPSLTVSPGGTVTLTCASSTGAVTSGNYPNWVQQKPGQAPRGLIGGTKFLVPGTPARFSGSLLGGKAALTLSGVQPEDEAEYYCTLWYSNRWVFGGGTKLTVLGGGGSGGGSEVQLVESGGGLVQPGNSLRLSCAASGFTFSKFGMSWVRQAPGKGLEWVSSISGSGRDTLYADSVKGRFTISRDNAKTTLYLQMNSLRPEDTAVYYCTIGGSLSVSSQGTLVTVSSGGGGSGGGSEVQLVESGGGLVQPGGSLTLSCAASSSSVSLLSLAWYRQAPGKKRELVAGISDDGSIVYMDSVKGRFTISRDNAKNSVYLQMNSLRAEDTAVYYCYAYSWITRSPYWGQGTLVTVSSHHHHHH

- binding result [1]: binds
- binding result [2]: binds
B1: human DLL3 on DLL3-expressing tumor cell lines (ligand)
chain: AGVFELQIHSFGPGPGPGAPRSPCSARLPCRLFFRVCLKPGLSEEAAESPCALGAALSARGPVYTEQPGAPAPDLPLPDGLLQVPFRDAWPGTFSFIIETWREELGDQIGGPAWSLLARVAGRRRLAAGGPWARDIQRAGAWELRFSYRARCEPPAVGTACTRLCRPRSAPSRCGPGLRPCAPLEDECEAPLVCRAGCSPEHGFCEQPGECRCLEGWTGPLCTVPVSTSSCLSPRGPSSATTGCLVPGPGPCDGNPCANGGSCSETPRSFECTCPRGFYGLRCEVSGVTCADGPCFNGGLCVGGADPDSAYICHCPPGFQGSNCEKRVDRCSLQPCRNGGLCLDLGHALRCRCRAGFAGPRCEHDLDDCAGRACANGGTCVEGGGAHRCSCALGFGGRDCRERADPCAARPCAHGGRCYAHFSGLVCACAPGYMGARCEFPVHPDGASALPAAPPGLRPGDPQRYLLPPALGLLVAAGVAGAALLLVHVRRRGHSQDAGSRLLAGTPEPSVHALPDALNNLRTQEGSGDGPSSSVDWNRPEDVDPQGIYVISAPSIYAREVATPLFPPLHTGRAGQRQHLLFPYPSSILSVK
notes: endogenous DLL3 of human cancer cell lines
